Source: patent US12060408B2, “Screening assays, modulators and modulation of activation of Receptor for Advanced Glycation End-products (RAGE)” (Monash University, priority 2017, dated 2024)
Ends that are not written are not given here.

Experiments:
[1] = target: T1, RAGE (Homo sapiens, UniProt Q15109); experiment: Ang II-induced pro-inflammatory gene expression in human aortic endothelial cells (HAEC); type: cell-based; details: HAECs; 1 μM, 30 minutes before Ang II; FIG. 13G
T1 construct: RAGE-AT1R—CHO cells expressing both full length RAGE and AT1R; expressed in transfected cells
Description: To confirm the applicability of inhibition strategies to human tissues, additional experiments were undertaken in primary aortic endothelial cells from humans (Lonza). HAECs were grown in EGM-2 media. […]

[2] = target: T2, CCR1 (Homo sapiens, UniProt P32246); experiment: Receptor-HIT BRET, β-arr2/Venus with RAGE/Rluc8 and CCR1; type: cell-based; details: in the presence of CCR1
T2 construct: expressed in transfected cells; host or cells: HEK293FT, transient
Description: (§1) Bioluminescence Resonance Energy Transfer (BRET)
(§2) BRET is an established technology for studying protein-protein proximity in live cells, particularly involving GPCRs (Pfleger and Eidne, 2006). One protein of interest was linked to a bioluminescent donor enzyme, Rluc8, a variant of Renilla luciferase, and a second linked to an acceptor fluorophore, Venus, a variant of green fluorescent protein. If in close proximity (<10 nm), energy resulting from the rapid oxidation of a cell-permeable coelenterazine substrate by the donor can transfer to the acceptor, which in turn fluoresces at a longer characteristic wavelength.
(§3) Plasmids were transiently co-expressed in human embryonic kidney (HEK) 293FT cells and BRET measurements taken at 37° C. using a POLARstar Omega or LUMIstar plate reader (BMG Labtech, Mornington, Victoria, Australia) with 460-490 nm (‘donor emission’) and 520-550 nm (‘acceptor emission’) filters, or a VICTOR Light plate reader (Perkin Elmer, Glen Waverley, Victoria, Australia) with 400-475 nm (‘donor emission’) and 520-540 nm (‘acceptor emission’) filters, or a CLARIOstar plate reader (BMG Labtech, Mornington, Victoria, Australia) with 420-480 nm (‘donor emission’) and 520-620 nm (‘acceptor emission’) filters. […]
(§4) For BRET kinetic assays, the final pre-treatment reading is presented at the zero time point (time of ligand/vehicle addition). […]

[3] = target: T3, CCR7 (Homo sapiens, UniProt P32248); experiment: Receptor-HIT BRET, β-arr2/Venus with RAGE/Rluc8 and CCR7; type: cell-based; details: in the presence of CCR7
T3 construct: expressed in transfected cells; host or cells: HEK293FT, transient
Description: as §1, §2, §3, §4

[4] = target: T4, CCR6 (Homo sapiens, UniProt P51684); experiment: Receptor-HIT BRET, β-arr2/Venus with RAGE/Rluc8 and CCR6; type: cell-based; details: in the presence of CCR6
T4 construct: expressed in transfected cells; host or cells: HEK293FT, transient
Description: as §1, §2, §3, §4

[5] = target: TIRAP (Homo sapiens, UniProt P58753); details: Putranto et al., 2013; cited from earlier work
[6] = tested on: RAGE ligand-dependent signalling; details: Putranto et al., 2013; cited from earlier work
[7] = tested on: U-87MG cells; details: Putranto et al., 2013; cited from earlier work
[8] = target: T5, CCR7 and RAGE (Homo sapiens, UniProt P32248+Q15109); experiment: Ligand-induced BRET, Rluc8-tagged GPCR and RAGE/Venus; type: cell-based; details: mCherry-RAGE338-361 co-expressed, FIG. 21F
T5 construct: expressed in transfected cells; host or cells: HEK293FT

[9] = target: T6, orexin receptor 2 and RAGE (Homo sapiens, UniProt O43614+Q15109); experiment: as above; type: cell-based; details: mCherry-RAGE338-361 co-expressed, FIG. 21F
T6 construct: expressed in transfected cells; host or cells: HEK293FT

[10] = target: T7, sphingosine 1-phosphate receptor 1 (S1PR1) and RAGE (Homo sapiens, UniProt P21453+Q15109); experiment: as above; type: cell-based; details: mCherry-RAGE338-361 co-expressed, FIG. 21F
T7 construct: expressed in transfected cells; host or cells: HEK293FT

[11] = target: T8, bradykinin receptor 2 (B2R) and RAGE (Homo sapiens, UniProt P30411+Q15109); experiment: as above; type: cell-based; details: mCherry-RAGE338-361 co-expressed, FIG. 21F
T8 construct: expressed in transfected cells; host or cells: HEK293FT

[12] = target: T9, AT1R and RAGE (Homo sapiens, UniProt P30556+Q15109); experiment: BRET between AT1R/Rluc8 and RAGE/Venus in HEK293FT cells; type: cell-based
T9 construct: expressed in transfected cells; host or cells: HEK293FT

[13] = target: T10, adrenergic α2B receptor and RAGE (Homo sapiens, UniProt P18089+Q15109); experiment: Ligand-induced BRET, Rluc8-tagged GPCR and RAGE/Venus; type: cell-based; details: mCherry-RAGE338-361 co-expressed, FIG. 21F
T10 construct: expressed in transfected cells; host or cells: HEK293FT

[14] = target: T11, adenosine A1 receptor (ADORA1) and RAGE (Homo sapiens, UniProt P30542+Q15109); experiment: as above; type: cell-based; details: mCherry-RAGE338-361 co-expressed, FIG. 21F
T11 construct: expressed in transfected cells; host or cells: HEK293FT

[15] = target: T12, CCR1 and RAGE (Homo sapiens, UniProt P32246+Q15109); experiment: as above; type: cell-based; details: mCherry-RAGE338-361 co-expressed, FIG. 21F
T12 construct: expressed in transfected cells; host or cells: HEK293FT

[16] = target: T13, CCR9 and RAGE (Homo sapiens, UniProt P51686+Q15109); experiment: as above; type: cell-based; details: mCherry-RAGE338-361 co-expressed, FIG. 21F
T13 construct: expressed in transfected cells; host or cells: HEK293FT

[17] = target: T14, CCR2 and RAGE (Homo sapiens, UniProt P41597+Q15109); experiment: as above; type: cell-based; details: mCherry-RAGE338-361 co-expressed, FIG. 21F
T14 construct: expressed in transfected cells; host or cells: HEK293FT

[18] = target: T15, neuropeptide Y1 receptor (NPY1R) and RAGE (Homo sapiens, UniProt P25929+Q15109); experiment: as above; type: cell-based; details: mCherry-RAGE338-361 co-expressed, FIG. 21F
T15 construct: expressed in transfected cells; host or cells: HEK293FT

[19] = target: T16, vasopressin receptor 2 (V2R) and RAGE (Homo sapiens, UniProt P30518+Q15109); experiment: as above; type: cell-based; details: mCherry-RAGE338-361 co-expressed, FIG. 21F
T16 construct: expressed in transfected cells; host or cells: HEK293FT

[20] = target: T17, CXCR2 and RAGE (Homo sapiens, UniProt P25025+Q15109); experiment: as above; type: cell-based; details: mCherry-RAGE338-361 co-expressed, FIG. 21F
T17 construct: expressed in transfected cells; host or cells: HEK293FT

[21] = target: T18, AT1 (Homo sapiens, UniProt P30556); experiment: BRET between mCherry-RAGE338-361 and Nluc-AT1; type: cell-based; design: expressed in transfected cells; host or cells: HEK293FT, transient; details: FIG. 21A
T18 sequence (P30556 1-359): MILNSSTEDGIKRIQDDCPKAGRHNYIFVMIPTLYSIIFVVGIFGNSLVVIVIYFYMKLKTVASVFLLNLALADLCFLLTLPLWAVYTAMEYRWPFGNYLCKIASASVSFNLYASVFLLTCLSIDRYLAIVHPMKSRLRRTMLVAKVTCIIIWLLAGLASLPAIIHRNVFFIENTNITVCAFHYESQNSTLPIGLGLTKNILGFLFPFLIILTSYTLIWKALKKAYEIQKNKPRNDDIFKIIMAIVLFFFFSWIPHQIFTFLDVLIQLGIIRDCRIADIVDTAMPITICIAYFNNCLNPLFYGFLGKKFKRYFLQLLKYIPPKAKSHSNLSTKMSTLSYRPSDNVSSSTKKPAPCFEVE

[22] = tested on: thyrotropin-releasing hormone receptor 1 (TRHR1) and RAGE; experiment: Ligand-induced BRET, Rluc8-tagged GPCR and RAGE/Venus; type: cell-based; details: mCherry-RAGE338-361 co-expressed, FIG. 21F
[23] = target: T19, vasopressin receptor 1B (V1bR) and RAGE (Homo sapiens, UniProt P47901+Q15109); experiment: as above; type: cell-based; details: mCherry-RAGE338-361 co-expressed, FIG. 21F
T19 construct: expressed in transfected cells; host or cells: HEK293FT

[24] = target: T20, CCR5 and RAGE (Homo sapiens, UniProt P51681+Q15109); experiment: as above; type: cell-based; details: mCherry-RAGE338-361 co-expressed, FIG. 21F
T20 construct: expressed in transfected cells; host or cells: HEK293FT

[25] = target: T21, CXCR4 and RAGE (Homo sapiens, UniProt P61073+Q15109); experiment: as above; type: cell-based; details: mCherry-RAGE338-361 co-expressed, FIG. 21F
T21 construct: expressed in transfected cells; host or cells: HEK293FT

[26] = target: T22, vasopressin receptor 1A (V1aR) and RAGE (Homo sapiens, UniProt P37288+Q15109); experiment: as above; type: cell-based; details: mCherry-RAGE338-361 co-expressed, FIG. 21F
T22 construct: expressed in transfected cells; host or cells: HEK293FT

[27] = target: T23, CCR6 and RAGE (Homo sapiens, UniProt P51684+Q15109); experiment: as above; type: cell-based; details: mCherry-RAGE338-361 co-expressed, FIG. 21F
T23 construct: expressed in transfected cells; host or cells: HEK293FT

[28] = target: T24, CXCR5 and RAGE (Homo sapiens, UniProt P32302+Q15109); experiment: as above; type: cell-based; details: mCherry-RAGE338-361 co-expressed, FIG. 21F
T24 construct: expressed in transfected cells; host or cells: HEK293FT

[29] = target: T25, CCR4 and RAGE (Homo sapiens, UniProt P51679+Q15109); experiment: as above; type: cell-based; details: mCherry-RAGE338-361 co-expressed, FIG. 21F
T25 construct: expressed in transfected cells; host or cells: HEK293FT
T25 sequence (P51679 whole entry): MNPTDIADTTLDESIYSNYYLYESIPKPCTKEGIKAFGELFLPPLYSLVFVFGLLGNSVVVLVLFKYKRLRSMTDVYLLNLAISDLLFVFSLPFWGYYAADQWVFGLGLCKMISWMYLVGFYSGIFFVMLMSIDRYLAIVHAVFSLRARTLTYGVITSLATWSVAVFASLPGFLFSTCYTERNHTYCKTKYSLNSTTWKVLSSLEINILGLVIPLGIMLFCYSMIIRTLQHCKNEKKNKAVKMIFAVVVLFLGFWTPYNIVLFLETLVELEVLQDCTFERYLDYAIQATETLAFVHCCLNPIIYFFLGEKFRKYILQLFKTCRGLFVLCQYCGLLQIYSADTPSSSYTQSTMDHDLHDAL
T25 sequence (Q15109 23-404): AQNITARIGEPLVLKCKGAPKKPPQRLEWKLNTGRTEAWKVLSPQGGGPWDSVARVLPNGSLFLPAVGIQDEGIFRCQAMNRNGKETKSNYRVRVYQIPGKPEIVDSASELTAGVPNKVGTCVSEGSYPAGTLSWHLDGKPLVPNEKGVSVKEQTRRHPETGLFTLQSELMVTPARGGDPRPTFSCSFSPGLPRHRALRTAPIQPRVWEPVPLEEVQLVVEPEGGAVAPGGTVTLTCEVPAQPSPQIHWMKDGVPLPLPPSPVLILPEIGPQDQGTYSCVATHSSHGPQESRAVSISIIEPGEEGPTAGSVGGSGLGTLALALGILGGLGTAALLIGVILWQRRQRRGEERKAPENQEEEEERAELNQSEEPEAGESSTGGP

T9 sequence (Q15109 23-404, one chain of several): as the sequence (Q15109 23-404) above
T3 sequence (P32248 25-378): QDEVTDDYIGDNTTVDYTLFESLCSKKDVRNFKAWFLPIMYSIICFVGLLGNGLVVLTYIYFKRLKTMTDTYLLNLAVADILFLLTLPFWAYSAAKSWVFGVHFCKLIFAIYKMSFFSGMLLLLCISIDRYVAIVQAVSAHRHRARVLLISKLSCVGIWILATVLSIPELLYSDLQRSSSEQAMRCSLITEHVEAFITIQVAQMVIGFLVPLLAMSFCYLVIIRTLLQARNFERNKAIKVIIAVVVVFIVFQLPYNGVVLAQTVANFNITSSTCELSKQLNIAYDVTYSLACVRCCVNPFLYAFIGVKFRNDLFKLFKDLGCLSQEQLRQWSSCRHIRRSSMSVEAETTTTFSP
T3 sequence (P32121 whole entry partner): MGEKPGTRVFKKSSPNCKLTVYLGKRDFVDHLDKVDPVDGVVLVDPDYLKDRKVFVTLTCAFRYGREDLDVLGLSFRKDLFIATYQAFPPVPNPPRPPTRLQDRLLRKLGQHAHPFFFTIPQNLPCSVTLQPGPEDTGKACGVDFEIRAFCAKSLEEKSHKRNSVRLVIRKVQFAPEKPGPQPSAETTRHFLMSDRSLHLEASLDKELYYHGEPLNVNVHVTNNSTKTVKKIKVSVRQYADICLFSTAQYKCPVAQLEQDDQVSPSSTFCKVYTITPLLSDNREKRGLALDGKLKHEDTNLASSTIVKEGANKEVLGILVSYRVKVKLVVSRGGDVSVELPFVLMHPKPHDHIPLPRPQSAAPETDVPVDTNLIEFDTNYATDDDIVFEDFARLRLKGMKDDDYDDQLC
T5 sequence (P32248 25-378): as the sequence (P32248 25-378) above
T5 sequence (Q15109 23-404): as the sequence (Q15109 23-404) above
T20 sequence (P51681 whole entry): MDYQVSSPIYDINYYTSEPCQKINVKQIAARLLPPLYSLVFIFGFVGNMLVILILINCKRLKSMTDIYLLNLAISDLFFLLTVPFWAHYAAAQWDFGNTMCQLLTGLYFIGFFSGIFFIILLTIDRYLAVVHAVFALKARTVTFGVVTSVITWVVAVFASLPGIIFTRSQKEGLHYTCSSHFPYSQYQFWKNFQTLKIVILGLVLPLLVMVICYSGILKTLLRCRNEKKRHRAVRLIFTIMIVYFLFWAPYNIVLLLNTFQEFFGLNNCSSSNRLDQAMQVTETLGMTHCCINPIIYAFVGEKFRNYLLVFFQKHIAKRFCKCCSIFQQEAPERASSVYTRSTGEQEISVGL
T20 sequence (Q15109 23-404): as the sequence (Q15109 23-404) above
T7 sequence (P21453 whole entry): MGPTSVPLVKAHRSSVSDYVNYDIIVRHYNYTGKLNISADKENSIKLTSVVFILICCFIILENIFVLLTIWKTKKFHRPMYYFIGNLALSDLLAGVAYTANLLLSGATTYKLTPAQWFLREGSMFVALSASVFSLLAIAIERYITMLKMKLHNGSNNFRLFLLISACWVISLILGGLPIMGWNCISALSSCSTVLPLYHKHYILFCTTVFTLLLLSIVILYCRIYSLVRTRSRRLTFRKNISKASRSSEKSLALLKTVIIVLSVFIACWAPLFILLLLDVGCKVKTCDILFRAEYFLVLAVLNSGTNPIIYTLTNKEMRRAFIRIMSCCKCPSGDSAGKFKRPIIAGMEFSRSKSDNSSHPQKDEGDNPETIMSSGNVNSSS
T7 sequence (Q15109 23-404): as the sequence (Q15109 23-404) above
T13 sequence (P51686 whole entry): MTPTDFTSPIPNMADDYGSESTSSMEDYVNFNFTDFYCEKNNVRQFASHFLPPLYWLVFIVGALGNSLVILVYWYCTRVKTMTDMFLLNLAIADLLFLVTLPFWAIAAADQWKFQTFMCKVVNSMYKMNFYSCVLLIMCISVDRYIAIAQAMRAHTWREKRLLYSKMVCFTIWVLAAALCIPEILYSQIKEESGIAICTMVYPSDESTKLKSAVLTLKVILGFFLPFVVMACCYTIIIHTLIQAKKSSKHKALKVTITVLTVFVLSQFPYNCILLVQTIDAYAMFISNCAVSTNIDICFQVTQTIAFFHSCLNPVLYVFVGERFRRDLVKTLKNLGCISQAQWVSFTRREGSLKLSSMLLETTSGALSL
T13 sequence (Q15109 23-404): as the sequence (Q15109 23-404) above
T14 sequence (P41597 whole entry): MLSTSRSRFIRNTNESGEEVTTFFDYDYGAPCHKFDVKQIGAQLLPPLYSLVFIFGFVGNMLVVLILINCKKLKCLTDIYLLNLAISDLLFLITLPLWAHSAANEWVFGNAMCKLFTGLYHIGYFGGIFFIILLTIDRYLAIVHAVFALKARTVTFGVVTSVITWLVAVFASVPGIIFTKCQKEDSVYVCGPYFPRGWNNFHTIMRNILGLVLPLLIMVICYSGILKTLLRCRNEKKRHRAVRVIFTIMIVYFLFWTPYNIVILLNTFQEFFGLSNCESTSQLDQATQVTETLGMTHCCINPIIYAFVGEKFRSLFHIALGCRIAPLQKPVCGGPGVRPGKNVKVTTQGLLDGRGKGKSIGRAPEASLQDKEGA
T14 sequence (Q15109 23-404): as the sequence (Q15109 23-404) above
T11 sequence (P30542 whole entry): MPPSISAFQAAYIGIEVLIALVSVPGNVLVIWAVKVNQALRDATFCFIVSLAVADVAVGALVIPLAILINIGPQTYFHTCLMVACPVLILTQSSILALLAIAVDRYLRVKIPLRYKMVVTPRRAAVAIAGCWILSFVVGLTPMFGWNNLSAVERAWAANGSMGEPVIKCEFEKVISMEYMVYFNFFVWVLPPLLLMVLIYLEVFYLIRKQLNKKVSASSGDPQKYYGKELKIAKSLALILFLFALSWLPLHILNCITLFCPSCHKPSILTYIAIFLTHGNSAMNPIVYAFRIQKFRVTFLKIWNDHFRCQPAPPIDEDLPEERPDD
T11 sequence (Q15109 23-404): as the sequence (Q15109 23-404) above
T22 sequence (P37288 whole entry): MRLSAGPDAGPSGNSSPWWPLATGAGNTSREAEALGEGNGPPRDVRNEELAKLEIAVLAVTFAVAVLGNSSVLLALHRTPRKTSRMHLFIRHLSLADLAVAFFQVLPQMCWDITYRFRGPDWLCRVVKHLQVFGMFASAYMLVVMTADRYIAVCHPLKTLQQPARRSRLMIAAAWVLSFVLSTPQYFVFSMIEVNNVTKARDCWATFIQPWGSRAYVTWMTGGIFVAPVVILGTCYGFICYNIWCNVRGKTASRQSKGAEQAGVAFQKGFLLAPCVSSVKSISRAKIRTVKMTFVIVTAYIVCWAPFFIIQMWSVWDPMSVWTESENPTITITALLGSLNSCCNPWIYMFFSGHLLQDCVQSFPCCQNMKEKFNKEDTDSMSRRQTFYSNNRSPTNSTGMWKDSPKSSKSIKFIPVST
T22 sequence (Q15109 23-404): as the sequence (Q15109 23-404) above
T6 sequence (O43614 whole entry): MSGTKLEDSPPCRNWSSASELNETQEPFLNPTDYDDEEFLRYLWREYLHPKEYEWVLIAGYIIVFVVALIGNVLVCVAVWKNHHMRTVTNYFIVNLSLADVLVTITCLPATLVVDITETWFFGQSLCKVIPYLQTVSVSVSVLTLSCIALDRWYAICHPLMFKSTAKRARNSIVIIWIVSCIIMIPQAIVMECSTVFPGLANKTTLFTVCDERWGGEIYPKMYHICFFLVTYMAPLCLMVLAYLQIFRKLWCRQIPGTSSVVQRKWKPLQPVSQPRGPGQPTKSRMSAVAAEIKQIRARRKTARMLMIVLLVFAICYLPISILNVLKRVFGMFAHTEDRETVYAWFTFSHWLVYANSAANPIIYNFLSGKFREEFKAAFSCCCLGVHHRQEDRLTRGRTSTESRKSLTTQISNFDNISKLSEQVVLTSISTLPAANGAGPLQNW
T6 sequence (Q15109 23-404): as the sequence (Q15109 23-404) above
Chain of TIRAP (P58753 whole entry, species assumed): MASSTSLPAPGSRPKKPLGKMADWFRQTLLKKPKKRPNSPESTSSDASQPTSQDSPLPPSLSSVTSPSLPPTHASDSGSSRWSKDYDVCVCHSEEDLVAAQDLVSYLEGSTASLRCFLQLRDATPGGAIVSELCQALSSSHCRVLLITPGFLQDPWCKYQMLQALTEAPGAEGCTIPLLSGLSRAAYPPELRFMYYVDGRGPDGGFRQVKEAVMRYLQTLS
T1 sequence (Q15109 23-404): as the sequence (Q15109 23-404) above

CCCCC1=NC2(CCCC2)C(=O)N1Cc1ccc(-c2ccccc2-c2nnn[nH]2)cc1 [irbesartan]
Ang II-induced induction of pro-inflammatory genes [1]: inhibitory effect

CCL3: chemokine ligand used to activate CCR1
recruitment of β-arr2/Venus proximal to RAGE/Rluc8 [2]: recruitment

CCL19: chemokine ligand used to activate CCR7
recruitment of β-arr2/Venus proximal to RAGE/Rluc8 [3]: recruitment

CCL20: chemokine ligand used to activate CCR6
recruitment of β-arr2/Venus proximal to RAGE/Rluc8 [4]: recruitment

S391A-RAGE387-395: fragment of RAGE cytosolic tail of Putranto et al., 2013 (ELNQAEEPE; cytosolic tail peptide; UniProt Q15109 387-395, looked up, variant S391A)
binding to TIRAP [5]: did not show any appreciable binding | attenuation of apoptosis induced by RAGE ligand S100B [6]: did not attenuate

S391E-RAGE387-395: fragment of RAGE cytosolic tail of Putranto et al., 2013, mimicking the phosphorylated state of RAGE (ELNQEEEPE; cytosolic tail peptide; UniProt Q15109 387-395, looked up, variant S391E)
growth of U-87MG cells (intracellular adenosine triphosphate content) [7]: not significantly affected | inhibition of particular aspects of RAGE ligand-dependent signalling (apoptosis, cell migration and invasion) [6]: inhibitor

mCherry-RAGE338-361: the RAGE TMD with an extracellular juxta-membrane fragment linked to mCherry (LGTLALALGILGGLGTAALLIGVI; also: linked to mCherry)
inhibition of the change in the ligand-induced BRET signal between the Rluc8-tagged GPCR and RAGE/Venus [8]: small yet discernible inhibition | inhibition of the change in the ligand-induced BRET signal between the Rluc8-tagged GPCR and RAGE/Venus [9]: particularly clear inhibition | inhibition of the change in the ligand-induced BRET signal between the Rluc8-tagged GPCR and RAGE/Venus [10]: particularly clear inhibition | inhibition of the change in the ligand-induced BRET signal between the Rluc8-tagged GPCR and RAGE/Venus [11]: particularly clear inhibition | inhibition of the change in the ligand-induced BRET signal between the Rluc8-tagged GPCR and RAGE/Venus ([12]; angiotensin receptor AT1 (AT1R), mCherry-RAGE338-361 co-expressed, FIG. 21F): particularly clear inhibition | BRET between full length RAGE and AT1 (saturation and kinetic assays) ([12]; overexpression of mCherry-RAGE338-361, FIG. 21B, 21C): modulates BRET between full length RAGE and AT1 in a dose dependent fashion | inhibition of the change in the ligand-induced BRET signal between the Rluc8-tagged GPCR and RAGE/Venus [13]: particularly clear inhibition | inhibition of the change in the ligand-induced BRET signal between the Rluc8-tagged GPCR and RAGE/Venus [14]: small yet discernible inhibition | inhibition of the change in the ligand-induced BRET signal between the Rluc8-tagged GPCR and RAGE/Venus [15]: particularly clear inhibition | inhibition of the change in the ligand-induced BRET signal between the Rluc8-tagged GPCR and RAGE/Venus [16]: particularly clear inhibition | inhibition of the change in the ligand-induced BRET signal between the Rluc8-tagged GPCR and RAGE/Venus [17]: particularly clear inhibition | inhibition of the change in the ligand-induced BRET signal between the Rluc8-tagged GPCR and RAGE/Venus [18]: particularly clear inhibition | inhibition of the change in the ligand-induced BRET signal between the Rluc8-tagged GPCR and RAGE/Venus [19]: particularly clear inhibition | inhibition of the change in the ligand-induced BRET signal between the Rluc8-tagged GPCR and RAGE/Venus [20]: particularly clear inhibition | BRET signal with extracellularly luciferase-tagged AT1 receptor (Nluc-AT1) [21]: BRET signal is observed | inhibition of the change in the ligand-induced BRET signal between the Rluc8-tagged GPCR and RAGE/Venus [22]: particularly clear inhibition | inhibition of the change in the ligand-induced BRET signal between the Rluc8-tagged GPCR and RAGE/Venus [23]: particularly clear inhibition | inhibition of the change in the ligand-induced BRET signal between the Rluc8-tagged GPCR and RAGE/Venus [24]: particularly clear inhibition | inhibition of the change in the ligand-induced BRET signal between the Rluc8-tagged GPCR and RAGE/Venus [25]: particularly clear inhibition | inhibition of the change in the ligand-induced BRET signal between the Rluc8-tagged GPCR and RAGE/Venus [26]: particularly clear inhibition | inhibition of the change in the ligand-induced BRET signal between the Rluc8-tagged GPCR and RAGE/Venus [27]: particularly clear inhibition | inhibition of the change in the ligand-induced BRET signal between the Rluc8-tagged GPCR and RAGE/Venus [28]: small yet discernible inhibition | inhibition of the change in the ligand-induced BRET signal between the Rluc8-tagged GPCR and RAGE/Venus [29]: particularly clear inhibition
